Experimental data published in article PMC9482650, “Quantitative fragmentomics allow affinity mapping of interactomes” (Nature Communications, 2022).

What was measured:
Assay in all cases: holdup assay
Set-up in all cases: key: below the threshold = too weak to quantify, mostly under pKd 3.1 to 4
[1] = biological target: T1, TX1BP3, O14907
T1 sequence (O14907 10-122, limits assumed, looked up): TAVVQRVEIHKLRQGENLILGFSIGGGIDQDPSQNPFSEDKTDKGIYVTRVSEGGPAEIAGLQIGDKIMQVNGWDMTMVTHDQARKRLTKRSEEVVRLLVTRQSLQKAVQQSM

[2] = biological target: MAGI1_2, Q96QZ7
MAGI1_2, Q96QZ7, sequence (Q96QZ7 456-580): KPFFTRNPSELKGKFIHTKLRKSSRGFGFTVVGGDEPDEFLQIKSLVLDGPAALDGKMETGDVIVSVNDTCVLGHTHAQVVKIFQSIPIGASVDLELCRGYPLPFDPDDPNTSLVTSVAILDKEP

[3] = biological target: HTRA2, O43464
HTRA2, O43464, sequence (O43464 355-458): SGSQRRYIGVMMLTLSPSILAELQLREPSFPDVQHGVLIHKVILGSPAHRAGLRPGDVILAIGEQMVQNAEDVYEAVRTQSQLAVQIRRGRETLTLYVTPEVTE

[4] = biological target: GRIP2_4, Q9C0E4
GRIP2_4, Q9C0E4, sequence (Q9C0E4 446-548): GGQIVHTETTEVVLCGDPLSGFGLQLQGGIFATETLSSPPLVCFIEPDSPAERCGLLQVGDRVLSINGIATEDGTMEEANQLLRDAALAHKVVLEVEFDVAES

[5] = biological target: GORASP1, Q9BQQ3
GORASP1, Q9BQQ3, sequence (Q9BQQ3 1-208): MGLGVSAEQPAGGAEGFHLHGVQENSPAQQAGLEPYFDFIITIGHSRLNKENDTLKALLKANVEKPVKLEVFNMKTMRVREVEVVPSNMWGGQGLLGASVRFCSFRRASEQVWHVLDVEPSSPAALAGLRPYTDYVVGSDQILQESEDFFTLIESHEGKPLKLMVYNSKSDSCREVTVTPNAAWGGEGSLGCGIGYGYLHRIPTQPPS

[6] = biological target: T2, DFNB31_2, Q9P202
T2 sequence (Q9P202 274-371, limits assumed, looked up): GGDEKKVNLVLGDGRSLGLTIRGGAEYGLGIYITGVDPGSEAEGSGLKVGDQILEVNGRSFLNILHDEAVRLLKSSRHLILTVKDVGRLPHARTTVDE

[7] = biological target: Inadl_10, Q8NI35
Inadl_10, Q8NI35, sequence (Q8NI35 1673-1763): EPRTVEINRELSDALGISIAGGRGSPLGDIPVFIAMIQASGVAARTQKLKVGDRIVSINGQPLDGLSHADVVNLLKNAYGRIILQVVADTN

[8] = biological target: T3, DVL3, Q92997
T3 sequence (Q92997 244-331, limits assumed, looked up): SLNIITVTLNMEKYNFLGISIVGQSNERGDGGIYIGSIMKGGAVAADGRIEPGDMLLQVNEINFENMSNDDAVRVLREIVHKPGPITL

[9] = biological target: T4, SIPA1L2, Q9P2F8
T4 sequence (Q9P2F8 945-1036, limits assumed, looked up): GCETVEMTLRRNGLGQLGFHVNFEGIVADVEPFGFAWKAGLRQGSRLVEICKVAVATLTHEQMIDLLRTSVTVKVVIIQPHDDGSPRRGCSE

[10] = biological target: NOS1, P29475
NOS1, P29475, sequence (P29475 9-101): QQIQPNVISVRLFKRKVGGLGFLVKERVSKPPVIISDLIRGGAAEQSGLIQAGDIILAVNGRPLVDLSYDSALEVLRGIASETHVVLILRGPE

[11] = biological target: T5, APBA2_2, Q99767
T5 sequence (Q99767 654-744, limits assumed, looked up): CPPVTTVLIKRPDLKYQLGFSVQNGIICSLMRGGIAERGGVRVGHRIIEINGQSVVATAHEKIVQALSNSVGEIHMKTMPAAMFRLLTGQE

[12] = biological target: GRIP2_5, Q9C0E4
GRIP2_5, Q9C0E4, sequence (Q9C0E4 544-642): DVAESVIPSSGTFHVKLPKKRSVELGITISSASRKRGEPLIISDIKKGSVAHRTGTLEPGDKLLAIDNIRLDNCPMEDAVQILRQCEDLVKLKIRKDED

[13] = biological target: DLG1_1, Q12959
[14] = biological target: GRIP2_6, Q9C0E4
GRIP2_6, Q9C0E4, sequence (Q9C0E4 648-740): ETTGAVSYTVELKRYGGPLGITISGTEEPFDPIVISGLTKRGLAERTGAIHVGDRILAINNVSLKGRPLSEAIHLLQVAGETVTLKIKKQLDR

[15] = biological target: LDB3, O75112
LDB3, O75112, sequence (O75112 1-94): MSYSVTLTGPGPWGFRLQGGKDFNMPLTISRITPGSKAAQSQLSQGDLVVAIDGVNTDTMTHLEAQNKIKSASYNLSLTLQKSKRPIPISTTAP

[16] = biological target: T6, LIN7C, Q9NUP9
T6 sequence (Q9NUP9 88-185, limits assumed, looked up): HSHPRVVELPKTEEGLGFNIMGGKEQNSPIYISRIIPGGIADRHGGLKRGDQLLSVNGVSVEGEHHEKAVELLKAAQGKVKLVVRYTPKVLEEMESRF

[17] = biological target: T7, MPP2, Q14168
T7 sequence (Q14168 180-250, limits assumed, looked up): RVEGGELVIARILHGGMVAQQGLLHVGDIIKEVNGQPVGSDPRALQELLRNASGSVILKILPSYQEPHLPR

[18] = biological target: DLG2_3, Q15700
[19] = biological target: GRIP2_7, Q9C0E4
GRIP2_7, Q9C0E4, sequence (Q9C0E4 934-1023): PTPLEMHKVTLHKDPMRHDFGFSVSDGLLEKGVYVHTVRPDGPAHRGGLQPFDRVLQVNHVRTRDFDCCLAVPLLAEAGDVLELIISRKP

[20] = biological target: PARD3_3, Q8TEW0
PARD3_3, Q8TEW0, sequence (Q8TEW0 582-685): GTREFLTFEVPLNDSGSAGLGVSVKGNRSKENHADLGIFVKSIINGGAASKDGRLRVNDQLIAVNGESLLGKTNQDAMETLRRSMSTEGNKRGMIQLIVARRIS

[21] = biological target: NHERF4_2, Q86UT5
NHERF4_2, Q86UT5, sequence (Q86UT5 220-308): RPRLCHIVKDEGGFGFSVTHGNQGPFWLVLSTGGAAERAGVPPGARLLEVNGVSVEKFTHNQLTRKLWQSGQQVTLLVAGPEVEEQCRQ

[22] = biological target: SCRIB_3, Q14160
SCRIB_3, Q14160, sequence (Q14160 999-1103): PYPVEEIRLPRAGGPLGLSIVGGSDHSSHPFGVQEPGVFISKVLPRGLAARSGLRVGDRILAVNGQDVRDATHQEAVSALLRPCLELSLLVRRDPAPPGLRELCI

[23] = biological target: T8, LNX2_2, Q8N448
T8 sequence (Q8N448 334-432, limits assumed, looked up): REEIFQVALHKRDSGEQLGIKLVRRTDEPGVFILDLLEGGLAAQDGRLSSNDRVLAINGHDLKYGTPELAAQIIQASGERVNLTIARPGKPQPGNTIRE

[24] = biological target: T9, DLG3_1, Q92796
T9 sequence (Q92796 125-227, limits assumed, looked up): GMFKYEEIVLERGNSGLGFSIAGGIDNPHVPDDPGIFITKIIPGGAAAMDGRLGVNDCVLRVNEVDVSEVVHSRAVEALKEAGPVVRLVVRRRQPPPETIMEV

[25] = biological target: T10, FRMPD1, Q5SYB0
T10 sequence (Q5SYB0 52-145, limits assumed, looked up): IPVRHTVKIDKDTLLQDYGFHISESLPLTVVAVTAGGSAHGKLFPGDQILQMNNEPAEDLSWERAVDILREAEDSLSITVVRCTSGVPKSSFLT

[26] = biological target: T11, MPDZ_10, O75970
T11 sequence (O75970 1624-1722, limits assumed, looked up): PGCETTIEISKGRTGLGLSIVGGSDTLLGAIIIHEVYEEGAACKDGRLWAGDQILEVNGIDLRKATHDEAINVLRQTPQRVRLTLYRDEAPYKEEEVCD

[27] = plain residues with an end cap or a label only (N-terminal biotin on a linker: ahx)
[28] = plain residues with an end cap or a label only (N-terminal biotin on a linker: ttds)

Measured: pKd

PSASCAVTAA [PDLIM4, P50479;P50479-2]
below the threshold: [1]; [27] | [2]; [27] | [3]; [27] | [4]; [27] | [5]; [27] | [6]; [27] | [7]; [27] | [8]; [27] | [9]; [27] | [10]; [27] | [11]; [27] | [12]; [27] | [13]; [27] | [14]; [27] | [15]; [27] | [16]; [27] | [17]; [27] | [18]; [27] | [19]; [27] | [20]; [27] | [21]; [27] | [22]; [27] | [23]; [27] | [24]; [27] | [25]; [27]

PRVKPQRSKV [PPP1R13L, Q8WUF5]
3.82: [1]; [28]
3.72: [2]; [28]
below the threshold: [26]; [28] | [3]; [28] | [4]; [28] | [5]; [28] | [6]; [28] | [7]; [28] | [8]; [28] | [9]; [28] | [10]; [28] | [11]; [28] | [12]; [28] | [13]; [28] | [14]; [28] | [15]; [28] | [16]; [28] | [17]; [28] | [18]; [28] | [19]; [28] | [20]; [28] | [21]; [28] | [22]; [28] | [23]; [28] | [24]; [28] | [25]; [28]

LSDPSVSTVV [GRIN1, Q05586;Q05586-2]
4.06: [13]; [27]
4.64: [23]; [27]
below the threshold: [26]; [27] | [1]; [27] | [2]; [27] | [3]; [27] | [4]; [27] | [5]; [27] | [6]; [27] | [7]; [27] | [8]; [27] | [9]; [27] | [10]; [27] | [11]; [27] | [12]; [27] | [14]; [27] | [15]; [27] | [16]; [27] | [17]; [27] | [19]; [27] | [21]; [27] | [22]; [27] | [24]; [27] | [25]; [27]
4.26: [18]; [27]

EMDRRPATVV [PLCB4, Q15147]
4.93: [23]; [28]
below the threshold: [2]; [28] | [3]; [28] | [4]; [28] | [8]; [28] | [9]; [28] | [11]; [28] | [12]; [28] | [15]; [28] | [16]; [28] | [17]; [28] | [20]; [28] | [21]; [28] | [24]; [28]
4.11: [10]; [28]
3.61: [25]; [28]
3.67: [14]; [28]
3.51: [6]; [28]
4.06: [5]; [28]
3.73: [1]; [28]
4.2: [13]; [28]
3.7: [26]; [28]
3.86: [18]; [28]
3.63: [19]; [28]
4.1: [22]; [28]

SKPTRRETEV [HPV35-E6, P27228]
below the threshold: [26]; [28] | [3]; [28] | [4]; [28] | [5]; [28] | [6]; [28] | [7]; [28] | [8]; [28] | [9]; [28] | [11]; [28] | [12]; [28] | [14]; [28] | [15]; [28] | [17]; [28] | [19]; [28] | [20]; [28] | [21]; [28] | [23]; [28] | [25]; [28]
3.74: [10]; [28]
4.93: [1]; [28]
5.02: [13]; [28]
4.89: [22]; [28]
5.31: [18]; [28]
5.13: [2]; [28]
3.76: [16]; [28]
4.45: [24]; [28]
